Data published in the emibetuzumab library of Makowski et al. (2022).

B1: VH:VL chains; a variant is named by its letters at X, in order (parent)
chain 1: QVQLVQSGAEVKKPGASVKVSCKASGYTFTDYXMHWVRQAPGQGLEWMGXVNPNXXXTTYNQKFEGRVTMTTDTSTSTAYMELRSLRSDDTAVYYCARXNXLDXWGQGTTVTVSS
chain 2: DIQMTQSPSSLSASVGDRVTITCSVSSSVSSIYLHWYQQKPGKAPKLLIYSTSNLASGVPSRFSGSGSGTDFTLTISSLQPEDFATYYCQVYSGYPLTFGGGTKVEIK

Variants of: B1
Test: yeast display scFab, FACS + sequencing
Outline: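 Heavy-chain CDR mutant scFab yeast surface library, FACS-sorted after labelling with biotinylated ovalbumin (260 μg/mL in PBSB, 3 h, room temperature) or soluble membrane proteins (130 μg/mL, 20 min on ice), plus anti-Myc. Gates collected the top 25% and bottom 10% of binders, and samples from two replicates were deep sequenced. Non-specific binding call: a sequence was positive if found in ≥3 of 4 positive samples (membrane protein and ovalbumin pooled) and no negatives, and negative by the converse rule.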

| Variant | non-specific binding call |
| --- | --- |
| YRKGGFVA | binds |
| DRRGDSLV | no binding |
| VRKRGSSS | binds |
| VRRGDSSD | no binding |
| YRRGDSLY | binds |
| FRKRGSVF | binds |
| YRRGASWD | binds |
| VRGRSSLF | binds |
| VRGTGAVY | binds |
| YRKGGAGF | binds |
| YRKGGAGS | binds |
| YRKRGSGV | binds |
| YRKGAASD | binds |
| YRREGAGD | binds |
| YRGRSSSV | binds |
| VRRGDSVA | binds |
| YRKKSVGA | binds |
| YRKRTFGA | binds |
| YRRGDSSA | binds |
| FRKGGAAA | binds |
| YRGRGVWV | binds |
| YRRGDAGF | binds |
| YRRGDAGS | binds |
| YRKGSSLF | binds |
| YRKEAAAA | binds |
| VRGRGYAA | binds |

| Variant | non-specific binding call |
| --- | --- |
| YRGRGVVD | binds |
| YRGRGVVY | binds |
| YRGRSFAV | binds |
| YRKGASVD | binds |
| VRGTGDWD | no binding |
| YRKGSSVD | binds |
| YRKGSSVS | binds |
| YRKRGSVV | binds |
| YRKRGSVF | binds |
| VRKKGYVY | binds |
| SRKEGAAY | no binding |
| YRRESSGY | binds |
| YRRESSGV | binds |
| YRKGASAF | binds |
| YRKGGAVD | binds |
| YRKGGAVV | binds |
| ARKTGAGA | binds |
| YRRGDSAD | binds |
| YRRGDAAF | binds |
| VRGRGVGY | binds |
| YRGRSAWF | binds |
| YRGRSAWD | binds |
| YRGRSAWV | binds |
| YRGRGYGF | binds |
| YRGRGYGS | binds |
| YRGRGYGA | binds |

| Variant | non-specific binding call |
| --- | --- |
| VRKKGVSS | binds |
| VRKGGVAV | binds |
| FRGRGYVV | binds |
| FRGRGYVA | binds |
| VRRANFLD | binds |
| YRGRSSAA | binds |
| YRKGGFSS | binds |
| YRKGGDLY | no binding |
| VRGTGVAV | binds |
| FRGRSSGV | binds |
| YRGRGYWY | binds |
| YRGRGYWV | binds |
| YRGRGYWA | binds |
| VRGRSSVV | no binding |
| FRGRSSLA | binds |
| FRKRGSAV | binds |
| VRGTDAVV | no binding |
| FRKGGSLD | binds |
| YRKGSAAA | binds |
| YRGRSFGV | binds |
| FRGTGSWA | binds |
| VRGRGVAV | binds |
| YRREGSGV | binds |
| YRRGAAAA | binds |
| YRRGAAAV | binds |
| FRGRGVGA | binds |

| Variant | non-specific binding call |
| --- | --- |
| FRGRGVGD | binds |
| FRGRGYGA | binds |
| VRKGGSLD | binds |
| YRKRGAGD | binds |
| YRKRGAGA | binds |
| FRRGDALD | binds |
| YRKRSVVF chain 1 S115F | binds |
| DRRGDDVF | no binding |
| YRRGDAWD | binds |
| YRRGDAWY | binds |
| VRRAADSD | binds |
| SRKKGDGS | binds |
| YRGTGAGV | binds |
| FRRGDAAV | binds |
| SRKGAASD | binds |
| YRRGDDGD | binds |
| FRGRGYWV | binds |
| YRREGSAV | binds |
| VRRASSVA | binds |
| VRRGDFWA | no binding |
| YRGRSSWS | binds |
| YRGRSSWD | binds |
| YRKGGSVS | binds |
| YRKESAVY | binds |
| DRRGDSSA | no binding |
| YRKGSAWD | binds |

| Variant | non-specific binding call |
| --- | --- |
| YRKEGAAA | binds |
| YRKGSAGD | binds |
| SRRETFVF | binds |
| YRKGSSGA | binds |
| YRKGSSGD | binds |
| YRKGSSGV | binds |
| YRKGSSGF | binds |
| YRGRTSLD | binds |
| YRGRGYSV | binds |
| YRKRGDVV | binds |
| FRKGGSGD | binds |
| FRKGGSGV | binds |
| ARKGSSGD | binds |
| FRKGGAGS | binds |
| VRGRGYGV | binds |
| VRKRGALD | binds |
| YRKKGDLA | binds |
| DRREDALD | no binding |
| YRRGDASD | binds |
| FRRGDAVA | binds |
| YRRGAAWA | binds |
| FRKAAVAV | binds |
| YRRGDSWD | binds |
| YRGRGYVS | binds |
| YRKRGAAD | binds |
| YRKRGAAA | binds |

| Variant | non-specific binding call |
| --- | --- |
| FRKRSFSS | binds |
| VRGRSDVF | no binding |
| VRRGDDVY | no binding |
| YRKGSASD | binds |
| ARRGAAGV | binds |
| DRRGDASD | no binding |
| YRKGGAWV | binds |
| YRKGGAWY | binds |
| YRKGGAWF | binds |
| VRGTGSAD | binds |
| VRRGDAGY | no binding |
| YRKGGSAA | binds |
| YRGRSAAY | binds |
| VRKGGSVY | binds |
| YRRANFLD | binds |
| YRGRGYAY | binds |
| YRGRGYAA | binds |
| FRRGDSAA | binds |
| YRREGSLD | binds |
| YRREGSLA | binds |
| YRKGSALD | binds |
| YRKGDSGD | binds |
| FRGTSFGD chain 1 T58I | binds |
| YRREGSVV | binds |
| VRGTGSWD | binds |
| FRGTGSGD | binds |

| Variant | non-specific binding call |
| --- | --- |
| YRGRSAGV | binds |
| YRGRSAGA | binds |
| YRGRSAGY | binds |
| YRGRSAGS | binds |
| ARRGAYGV | binds |
| DRREGYGA | binds |
| YRKRGAVD | binds |
| YRGRSASY | binds |
| YRGRSASV | binds |
| YRGRSASS | binds |
| YRRGAAGD | binds |
| YRKGGSWS | binds |
| YRGRGVAV | binds |
| YRGRGVAA | binds |
| VRGRSAWS | no binding |
| FRGRSSAF | binds |
| FRGRSSAA | binds |
| YRRGDFWA | no binding |
| YRKRGSSA | binds |
| FRGRSSVA | binds |
| DRGRSDVA | no binding |
| FRRGDAGD | binds |
| YRGRSSLY | binds |
| YRKRGVGV | binds |
| VRGTGSGA | binds |
| FRKGDASD | binds |

| Variant | non-specific binding call |
| --- | --- |
| FRKRGAWY | binds |
| YRKENYGD | binds |
| DRREDSSA | no binding |
| YRGTGSVD | binds |
| YRKGDAGD | binds |
| YRGRSALA | binds |
| YRKKGALY | binds |
| YRKGAAVV | binds |
| VRGTGFGA | binds |
| YRKGSSWD | binds |
| FRGRSYVD | binds |
| YRRAADSD | binds |
| YRRGASGV | binds |
| VRGRGVSY | binds |
| YRKGTAGD | binds |
| ARGRSDVA | no binding |
| VRGTGYAS | binds |
| YRGRGVLF | binds |
| FRGTGFVD | binds |
| VRGRSSGS | binds |
| YRGRGVGA | binds |
| YRGRGVGD | binds |
| YRGRGVGS | binds |
| YRGRGVGF | binds |
| YRGRGVGY | binds |
| SRGRGYGD | binds |

| Variant | non-specific binding call |
| --- | --- |
| YRKGSSAA | binds |
| VRRGDVGV | binds |
| YRRESAGF | binds |
| YRKGDSLD | binds |
| ARGRSDAV | no binding |
| SRGRGVLV | binds |
| VRKGSSGD | binds |
| VRGRSDWV | no binding |
| YRKGAALA | binds |
| YRKRGSLV | binds |
| YRKRGSLY | binds |
| DRRGDAVY | no binding |
| DRRGDAVA | no binding |
| YRKGGSGY | binds |
| YRKGGSGA | binds |
| YRKGGSGV | binds |
| YRREGDWA | binds |
| FRREGSSD | binds |
| VRGTDAGV | no binding |
| SRKGGDAA | no binding |
| DRRANFLY | binds |
| YRGRTAGV | binds |
| SRGRGVGA | binds |
| DRRGDDGV | no binding |
| DRRGDDGA | no binding |
| VRRETVSD | binds |

| Variant | non-specific binding call |
| --- | --- |
| YRRGDSGV | binds |
| YRGRTAAA | binds |
| YRGRTAAF | binds |
| YRGRTAAV | binds |
| YRGRTAAD | binds |
| YRGRTAAY | binds |
| VRGRSSAA | binds |
| YRGRGVSS | binds |
| YRGRGVSD | binds |
| VRKGGSGV | binds |
| DRKGGDWS | binds |
| YRKEAAWV | binds |
| SRGRGYSV | binds |
| FRKGSAVD | binds |
| FRGRGYAV | binds |
| YRRGASSS | binds |
| YRKKTDWS | binds |
| YRKGGAAY | binds |
| YRKGGAAV | binds |
| YRKGGAAS | binds |
| FRKGTALD | binds |
